According to US12612465B2, “Formulations comprising PCSK9 specific monoclonal antibodies” (Amgen Inc., priority 2012, dated 2026):

What was measured:
[1] = Pharmacokinetics in mice expressing human PCSK9 by AAV; type: in vivo, mouse; settings: 30 mg/kg intravenous
Method: Serum concentrations of antibody were determined using a sandwich ELISA assay. Polyclonal goat anti-human Fc IgG and an HRP-labeled goat anti-human IgG Fcγ polyclonal reagent (both from Jackson ImmunoResearch Laboratories Inc, West Grove, Pa.) were used as the capture and the detection antibody, respectively. A 3,3′,5,5′ tetramethylbenzidine (TMB) substrate solution reacted with peroxide, and in the presence of horse radish peroxidase (HRP), created a colorimetric signal that was proportional to the amount of the respective anti-PCSK9 antibody bound by the capture reagent. The intensity of the color (optical density, OD) was measured at 450 nm minus 650 nm using a microplate reader (Spectra Max Plus 384). Data was analyzed using Watson version 7.0.0.01 (Thermo Scientific, Waltham, Mass.) data reduction package with a Logistic (auto-estimate) regression of separately prepared standard curves. The lower limit of quantification (LLOQ) for the assay was […].
Non-compartmental analysis (NCA) was performed on serum concentrations using the pre-determined nominal time points for each subject using WinNonlin Enterprise, version 5.1.1 (Pharsight, St. Louis, Mo.). […] NCA parameters reported include: apparent half-life (t½), area under the serum concentration-time curve from time zero to the last measured concentration (AUC0-t), and apparent serum clearance (CL0-t). […]

[2] = Viscosity measurement of 11F1 formulations; type: physicochemical; settings: 10 mM sodium acetate
Method: Concentration determination was then carried out by measuring absorbance at A280 using an Agilent 8453 Spectrophotometer (Santa Clara, Calif.). Protein concentration was calculated using the appropriate extinction coefficient. The appropriate amount of buffer was then added to the sample to dilute it back down to the desired concentration and another A280 was performed to obtain the final concentration for the experiment. Excipients were added individually to the 11F1 formulations samples derived from the high concentration stock solutions.
Viscosity was measured using Brookfield LV-DVII cone and plate viscometer (Middleboro, Mass.) with a CPE-40 spindle with matching sample cup temperature regulated by a circulating water bath at constant 25° C. 500 μL of sample was added to sample cup with positive displacement pipettor. […] At this point the rotational speed was stopped and a viscosity reading was generated by Rheocalc software.
High concentration protein formulations were sometimes measured using a different type of viscometer, an Anton Paar Physica Model MCR300 with a CP50-1 spindle. A 600 uL sample is used in this instrument and Rheoplus software version 3.4 was use to calculate solution viscosity. There was not a large difference in measurements using either viscometer.

human PCSK9 = target: T1, human PCSK9 (Homo sapiens, UniProt Q8NBP7, E620G/G670E/V474I); assay: Serum lipids in C57BL/6 mice expressing human PCSK9 by AAV; type: in vivo, mouse; settings: 30 mg/kg IV bolus
T1 construct: made in house
T1 sequence (Q8NBP7 153-692 V474I/E620G/G670E): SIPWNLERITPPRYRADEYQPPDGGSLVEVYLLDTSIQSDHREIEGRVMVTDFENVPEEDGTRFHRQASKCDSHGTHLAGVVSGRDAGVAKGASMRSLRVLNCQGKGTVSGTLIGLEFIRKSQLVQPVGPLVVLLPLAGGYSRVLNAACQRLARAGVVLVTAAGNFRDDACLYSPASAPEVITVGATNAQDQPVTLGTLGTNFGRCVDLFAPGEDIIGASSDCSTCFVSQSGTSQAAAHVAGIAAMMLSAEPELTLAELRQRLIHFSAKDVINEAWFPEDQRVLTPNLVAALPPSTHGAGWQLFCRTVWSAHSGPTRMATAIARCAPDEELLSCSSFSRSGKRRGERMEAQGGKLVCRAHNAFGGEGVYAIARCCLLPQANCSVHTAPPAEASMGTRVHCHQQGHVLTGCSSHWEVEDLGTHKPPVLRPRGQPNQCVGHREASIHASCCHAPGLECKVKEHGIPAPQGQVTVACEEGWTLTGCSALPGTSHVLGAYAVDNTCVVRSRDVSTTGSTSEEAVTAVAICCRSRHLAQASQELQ
Method: Briefly, 120 C57BL/6 mice expressing human PCSK9 were generated by infection with an engineered adeno associated virus (AAV) coding for human PCSK9, resulting in elevated levels of circulating low density lipoprotein cholesterol (LDL-C). Serum cholesterol analysis was performed using the Cobas Integra 400 plus chemistry analyzer (Roche Diagnostics, Indianapolis, Ind.). Animals were randomized into treatment groups with similar levels of non-HDL-C (LDL-C and VLDL-C), HDL-C and TC. On treatment day 0 (T=0) a subset of mice was euthanized and serum collected to establish that day's baseline levels. Remaining mice were then administered 11F1, 8A3 or anti-keyhole limpethemocyanin (KLH) IgG2 control antibody at 30 mg/kg. via tail vein injection. At days 1 through 5 following injection, subsets of mice were euthanized and whole blood was collected from the vena cava and allowed to coagulate for 30 minutes at room temperature. Following centrifugation at 12,000 rpm with a bench top centrifuge for 10 minutes, serum was collected. Serum cholesterol analysis was performed using the Cobas Integra 400 plus chemistry analyzer.
All cholesterol results were expressed as the mean±standard error of the mean. All pharmacokinetic data were expressed as the mean±standard deviation. The p value of 0.05, determined by 1-way ANOVA was used as a threshold to determine statistical significance between the anti-KLH IgG2 control antibody injected animals and those dosed with anti-PCSK9 antibody at the same time point.

Substance: 11F1: anti-PCSK9 ABP, light/heavy variable region SEQ ID NO 465/463 [Antibody 11F1]
- AUC0-t exposures, estimated CL0-t and apparent half-lives of 11F1 vs 8A3 [1]: equivalent
- Viscosity @ 25 C. ([2]; 145 mg/mL, 9% Sucrose 0.01% PS 20, pH 5.2): 14 cP
- Viscosity @ 25 C. ([2]; 147 mg/mL, 150 mM Methionine, 3% Sucrose, 0.01% PS 20, pH 5.2): 13 cP
- Viscosity @ 25 C. ([2]; 170 mg/mL, 250 mM Praline, 0.01% PS 20, pH 5.0): 18 cP
- Viscosity @ 25 C. ([2]; 172 mg/mL, 9% Sucrose 0.01% PS 20, pH 5.2): 23 cP
- Viscosity @ 25 C. ([2]; 186 mg/mL, 9% Sucrose 0.01% PS 20, pH 5.2): 45 cP
- Viscosity @ 25 C. ([2]; 191 mg/mL, 9% Sucrose 0.01% PS 20, pH 5.2): 53 cP
- Viscosity @ 25 C. ([2]; 192 mg/mL, 150 mM Methionine, 3% Sucrose, 0.01% PS 20, pH 5.2): 31 cP
- Viscosity @ 25 C. ([2]; 196 mg/mL, 250 mM Praline, 0.01% PS 20, pH 5.0): 36 cP
- Viscosity @ 25 C. ([2]; 211 mg/mL, 9% Sucrose, 100 mM Arginine, pH 5.2): 26 cP
- Viscosity @ 25 C. ([2]; 211 mg/mL, 9% Sucrose, 150 mM Alanine, pH 5.2): 43 cP
- Viscosity @ 25 C. ([2]; 211 mg/mL, 9% Sucrose, 150 mM Glycine, pH 5.2): 45 cP
- Viscosity @ 25 C. ([2]; 211 mg/mL, 9% Sucrose, 150 mM Serine, pH 5.2): 48 cP
- Viscosity @ 25 C. ([2]; 211 mg/mL, 9% Sucrose, 150 mM sodium chloride, pH 5.2): 62 cP
- Viscosity @ 25 C. ([2]; 211 mg/mL, 9% Sucrose, pH 5.2): 73 cP
- Viscosity @ 25 C. ([2]; 211 mg/mL, pH 5.2): 58 cP
- Viscosity @ 25 C. ([2]; 212 mg/mL, 150 mM Methionine, 3% Sucrose, 0.01% PS 20, pH 5.2): 54 cP
- Viscosity @ 25 C. ([2]; 212 mg/mL, 250 mM Praline, 0.01% PS 20, pH 5.0): 47 cP
- Viscosity @ 25 C. ([2]; 224 mg/mL, 9% Sucrose 0.01% PS 20, pH 5.2): 133 cP
- Viscosity @ 25 C. ([2]; […], 150 mM Methionine, 3% Sucrose, 0.01% PS 20, pH 5.2): 18 cP
- Viscosity @ 25 C. ([2]; […], 9% Sucrose 0.01% PS 20, pH 5.2): 8 cP
- lowering of HDL-C vs control animals (human PCSK9; any time point): No significant lowering of HDL-C
- lowering of TC vs control animals (human PCSK9; day 4 only): 22%
- maximum lowering of serum non-HDL-C vs control animals (human PCSK9; significant at days 1, 2 and 4 post-injection): 59%
